We go through two molecules from patent US8404652B2, “DNA-binding protein YB-1-containing collagen accumulation inhibitors” (Sumitomo Chemical Company, Limited, priority 2000, dated 2013).

What all share (assay type): cell-based
Experiment [1] deals with promoter region of the human type-I collagen α2 strand gene (binding reporter vector). Put plainly: CAT reporter assay of test substances, binding reporter vector-transduced fibroblast. The procedure:
(§1) 2 ml of an angelica extract [ICHIMARU-PHARCOS, PHARCOLEX (trade mark of ICHIMARU-PHARCOS), angelica] and 2 ml of a basswood extract [ICHIMARU-PHARCOS, PHARCOLEX (trade mark of ICHIMARU-PHARCOS), linden] were freeze-dried and each was combined with 1 ml of dimethyl sulfoxide (hereinafter referred to as DMSO) per 50 mg of the freeze-dried material, whereby obtaining an angelica extract sample and a linden extract sample.
(§2) A normal human fetal dermal fibroblast was inoculated in a population of 1×10^6 cells in a 60-mm dish and incubated in D-MEM (+) overnight at 37° C. under 5% CO2 atmosphere, and then the culture medium was replaced with D-MEM (−). On the other hand, 100 μl of D-MEM (−) was combined with either of 2 μg of the binding reporter vector DNA or 2 μg of the non-binding reporter vector DNA obtained in Example 2 (3), and the mixture was allowed to stand at room temperature for 40 minutes (Solution 1). To 100 μl of MEM(−), 4.5 μl of Lipofectine (Gibco, Catalog No.18292-011) was added and the mixture was allowed to stand at room temperature for 40 minutes (Solution 2). Then Solution 1 and Solution 2 were mixed and allowed to stand at room temperature for 10 minutes, and then combined with 2 ml of D-MEM (−) and mixed. This mixture was added to the normal human fetal fibroblast described above, which was then incubated at 37° C. under 5% CO2 atmosphere for 6 hours. […]

Experiment [2] concerns human type-I collagen α2 strand mRNA. In words: Type-I collagen α2 strand mRNA quantity (northern blotting) with test substances. To be noted: extract 50 μg lyophilized sample per ml, INF-γ 100 U/ml. The procedure: A normal human fetal dermal fibroblast was inoculated in a population of […] in a 100-mm dish and incubated in D-MEM (+) overnight at 37° C. under 5% CO2 atmosphere. This cell was supplemented with the angelica extract sample prepared in Example 7 (2) at 50 μg lyophilized sample per ml medium and incubated further for 24 hours. In a case of negative control, the angelica extract sample was replaced with DMSO (added at 0.1% in the medium).
In a case of positive control, the angelica extract sample was replaced with INF-γ (added at 100 U/ml in the medium). The cell thus incubated was washed twice with a PBS, and used to prepare a total RNA similarly to Example 1 (1). […] The radioactivity of the air-dried filter was determined using BAStation.
On the other hand, 10 μg of the total RNA was subjected to an electrophoresis on the gel described above which contained 0.5 μg/ml of ethidium bromide (Gibco BRL, Catalog No.15582-018) and the fluorescent intensity of 28S ribosome RNA was quantified using Luminescent Image Analyzer LAS-1000 plus (FUJI FILM) and Image Gauge Ver 3.12 (FUJI FILM). The quantity of the type-I collagen α2 strand mRNA relative to the 28S ribosome RNA was calculated in accordance with the following equation. Type-I collagen α2 strand mRNA quantity=Radioactivity of band of about 5.8 kb/fluorescent intensity of 28S ribosome RNA […]

Experiment [3] concerns DNA-binding protein of invention (YB-1) fused with GFP (pCMX-YB-1-GFP). Put plainly: Fluorescent microscope examination of migration of YB-1-GFP into the nucleus. To be noted: human fibroblast transduced with pCMX-YB-1-GFP; 4 hours contact; IFN-γ 100 U/ml as positive control. The procedure:
100 ng of YB-1/RSV, 10 pmol of an oligonucleotide consisting of the nucleotide sequence represented by SEQ ID NO:.15, 10 pmol of an oligonucleotide consisting of the nucleotide sequence represented by SEQ ID NO:.16, 5 μl of the buffer included in KOD-Dash (TOYOBO, Catalog No.RR002A), 5 μl of Mg^2+ solution, 5 μl of dNTP mixture, 1 μl of KOD-Dash and distilled water were mixed to prepare 50 μl in total of a PCR solution, which was used to perform a PCR. The condition of the PCR involved an incubation at 94° C. for 2 minutes, followed by 35 cycles, each cycle involving the incubations at 94° C. for 15 seconds, 60° C. for 30 seconds and then 68° C. for 1 minute. After the PCR, the PCR solution was digested with HindIII and Pm1I and subjected to an ethanol precipitation to recover a DNA (hereinafter a DNA obtained as a residue is referred to as a YB-1DNA.). […] The nucleotide sequence of the plasmid DNA thus obtained was analyzed, and a plasmid having a nucleotide sequence in which a GFP amino acid sequence was encoded downstream of the amino acid sequence of the DNA-binding protein of the present invention with its reading flame being continued was selected. […]

For experiment [4], the system named is non-binding reporter vector. In words: CAT reporter assay of test substances, non-binding reporter vector-transduced fibroblast. To be noted: normal human fetal dermal fibroblast; sample 1 μg freeze dried material/ml, IFN-γ 100 U/ml; 40 hours; negative control of binding reporter cell = 1.0. The procedure: as §1, §2
A general note: Reporter assays use an easily measured gene product as a stand-in for the process of interest.

On to `CC(O)C(O)/C=C/C=C\CC/C=C/C(=O)NCC(C)(C)O` (stereo not drawn) [Compound A], for which the “relative CAT activity” value in experiment [1] (binding reporter vector-transduced normal human fetal dermal fibroblast, 8 μM in medium, methanol negative control = 1.0) came to 0.7.

B1: Positive control: interferon-γ (Roche) added at 100 U/ml in the medium (protein, UniProt P01579 24-161, looked up)
Interferon gamma: QDPYVKEAENLKKYFNAGHSDVADNGTLFLGILKNWKEESDRKIMQSQIVSFYFKLFKNFKDDQSIQKSVETIKEDMNVKFFNSNKKKRDDFEKLTNYSVTDLNVQRKAIHELIQVMAELSPAAKTGKRKRSQMLFRG
In the case of B1, the “Relative transcription level of type-I collagen gene (α2 strand mRNA level)” value in experiment [2] (Table 5, TGFβ column prints Absent (method: TGFβ 10 ng/ml), negative control with TGFβ = 1.0) is 0.5; in experiment [2] (normal human fetal dermal fibroblast, TGFβ absent, 24 hours, negative control = 1.0), 0.5. In addition, in experiment [3], the “localisation of YB-1-GFP fluorescence (cytoplasmic / intranuclear)” value is listed as “no cytoplasmic fluorescence”. For the same molecule, the “Relative CAT activity, binding reporter vector-transduced cell” value in experiment [1] (normal human fetal dermal fibroblast, sample 1 μg freeze dried material/ml, IFN-γ 100 U/ml, 40 hours, negative control = 1.0) turned out to be 0.6. For the same molecule, in experiment [4], the “Relative CAT activity, non-binding reporter vector-transduced cell” value was found to be 0.9.
